Measurements from patent EP1019524B1.

Target: HeLa cell PP1α (cellular PP1α in S10 fractions of HeLa cells) (human) (UniProt P62136)
Test: cell-based or functional assay

HeLa cell PP1α (cellular PP1α in S10 fractions of HeLa cells) (human), sequence (P62136 2-330): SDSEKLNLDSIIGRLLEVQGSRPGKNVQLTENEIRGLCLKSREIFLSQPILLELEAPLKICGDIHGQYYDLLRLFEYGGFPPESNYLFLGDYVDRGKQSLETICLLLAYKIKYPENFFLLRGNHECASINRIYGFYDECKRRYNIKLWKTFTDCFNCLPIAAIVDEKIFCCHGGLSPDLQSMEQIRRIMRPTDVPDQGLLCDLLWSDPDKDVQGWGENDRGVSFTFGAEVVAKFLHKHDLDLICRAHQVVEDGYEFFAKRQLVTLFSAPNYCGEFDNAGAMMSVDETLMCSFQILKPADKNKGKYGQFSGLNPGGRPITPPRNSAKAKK

In the case of protein phosphatase Inhibitor 2, the 50% reduction in the rate of dephosphorylation of eIF-2(α32P) by the S10 fraction from R8300 virus-infected cells is reported as 120 µg/mL and the 50% reduction in the rate of dephosphorylation of eIF-2(α32P) by the S10 fraction from wild-type virus-infected cells is reported as 90 µg/mL.

For “γ134.5 protein of HSV-1(F), from lysates of HSV-1(F) infected cells (from UniProt P36313 1-248)”, the 32P-phosphorylase phosphatase activity of HSV-1(F)-infected cells against mock-infected cells (fold of mock-infected cells) was 0.5 and the eIF-2(α32P) phosphatase activity of S10 fractions of wild type infected HeLa cells against mock-infected cells was 3000 fold.

“γ134.5-MyD116 chimeric protein expressed by recombinant virus R8300 (from UniProt P36313 1-175; P17564 540-657)” showed an eIF-2(α32P) phosphatase activity of S10 fractions of R8300 infected HeLa cells against mock-infected cells of 50 fold.
